The nature of this data set: total protein half-life in vivo (active degradation + dilution); higher = more stable protein.
[1] abbreviates: E. coli NCM3722 delta-clpP delta-lon delta-hslV, growth: N-lim chemostat, doubling time 6 h.
Where [2] appears, read: wild type E. coli NCM3722, growth: C-lim chemostat, doubling time 3 h.
[3] abbreviates: wild type E. coli NCM3722, growth: C-lim chemostat, doubling time 6 h.
[4] abbreviates: wild type E. coli NCM3722, growth: C-lim chemostat, doubling time 12 h.
Where [5] appears, read: wild type E. coli NCM3722, growth: N-lim chemostat, doubling time 6 h.
Setting [6] is: wild type E. coli NCM3722, growth: N-lim chemostat, doubling time 12 h.
The mark [7] stands for this setting: wild type E. coli NCM3722, growth: P-lim chemostat, doubling time 12 h.
Where [8] appears, read: E. coli NCM3722 delta-clpP, growth: N-lim chemostat, doubling time 6 h.
Where [9] appears, read: E. coli NCM3722 delta-hslV, growth: N-lim chemostat, doubling time 6 h.
Setting [10] is: E. coli NCM3722 delta-lon, growth: N-lim chemostat, doubling time 6 h.
The mark [11] stands for this setting: E. coli NCM3722 delta-smpB, growth: N-lim chemostat, doubling time 6 h.
Where [12] appears, read: wild type E. coli NCM3722, growth: P-lim chemostat, doubling time 6 h.

± gives the standard deviation of the averaged measurements.

Turning to “MKLNATYIKIRDKWWGLPLFLPSLILPIFAHINTFAHISSGEVFLFYLPLALMISMMMFFSWAALPGIALGIFVRKYAELGFYETLSLTANFIIIIILCWGGYRVFTPRRNNVSHGDTRLISQRIFWQIVFPATLFLILFQFAAFVGLLASRENLVGVMPFNLGTLINYQALLVGNLIGVPLCYFIIRVVRNPFYLRSYYSQLKQQVDAKVTKKEFALWLLALGALLLLLCMPLNEKSTIFSTNYTLSLLLPLMMWGAMRYGYKLISLLWAVVLMISIHSYQNYIPIYPGYTTQLTITSSSYLVFSFIVNYMAVLATRQRAVVRRIQRLAYVDPVVHLPNVRALNRALRDAPWSALCYLRIPGMEMLVKNYGIMLRIQYKQKLSHWLSPLLEPGEDVYQLSGNDLALRLNTESHQERITALDSHLKQFRFFWDGMPMQPQIGVSYCYVRSPVNHIYLLLGELNTVAELSIVTNAPENMQRRGAMYLQRELKDKVAMMNRLQQALEHNHFFLMAQPITGMRGDVYHEILLRMKGENDELISPDSFLPVAHEFGLSSSIDMWVIEHTLQFMAENRAKMPAHRFAINLSPTSVCQARFPVEVSQLLAKYQIEAWQLIFEVTESNALTNVKQAQITLQHLQELGCQIAIDDFGTGYASYARLKNVNADLLKIDGSFIRNIVSNSLDYQIVASICHLARMKKMLVVAEYVENEEIREAVLSLGIDYMQGYLIGKPQPLIDTLNEIEPIRESA”, the “total protein half-life in vivo” value was 5.56 h under setting [1]; 2.98 h under setting [2]; 5.24 h under setting [3]; 9.12 h under setting [4]; 4.99 h under setting [5]; 6.22 h under setting [6]. In addition, the “total protein half-life in vivo” value under setting [7] stood at 11.5 h.

For “MLRECDYSQALLEQVNQAISDKTPLVIQGSNSKAFLGRPVTGQTLDVRCHRGIVNYDPTELVITARVGTPLVTIEAALESAGQMLPCEPPHYGEEATWGGMVACGLAGPRRPWSGSVRDFVLGTRIITGAGKHLRFGGEVMKNVAGYDLSRLMVGSYGCLGVLTEISMKVLPRPRASLSLRREISLQEAMSEIAEWQLQPLPISGLCYFDNALWIRLEGGEGSVKAARELLGGEEVAGQFWQQLREQQLPFFSLPGTLWRISLPSDAPMMDLPGEQLIDWGGALRWLKSTAEDNQIHRIARNAGGHATRFSAGDGGFAPLSAPLFRYHQQLKQQLDPCGVFNPGRMYAEL”, the “total protein half-life in vivo” value runs as follows: under setting [1], 4.1 ± 1.8 h; under setting [2], 1.22 ± 0.36 h; under setting [3], 2.52 ± 0.13 h; under setting [4], 3.59 ± 0.039 h; under setting [7], 3.88 ± 1.7 h.

In the case of “MQKREPVIIAPDYTDDELYEWMRQKINAAQDLKWANEARAKQAENLSALEQDITNLEKAAALSIARMITYPR”, the “total protein half-life in vivo” value under setting [2] came out at 3.16 h.

Turning to “MRNRTLADLDRVVALGGGHGLGRVLSSLSSLGSRLTGIVTTTDNGGSTGRIRRSEGGIAWGDMRNCLNQLITEPSVASAMFEYRFGGNGELSGHNLGNLMLKALDHLSVRPLEAINLIRNLLKVDTHLIPMSEHPVDLMAIDDQGHEVYGEVNIDQLTTPIQELLLTPNVPATREAVHAINEADLIIIGPGSFYTSLMPILLLKEIAQALRRTPAPMVYIGNLGRELSLPAANLKLESKLAIMEQYVGKKVIDAVIVGPKVDVSAVKERIVIQEVLEASDIPYRHDRQLLHNALEKALQALG”, the “total protein half-life in vivo” value by setting is: under setting [1], 4.62 ± 0.5 h; under setting [8], 4.2 ± 0.13 h; under setting [9], 4.3 ± 0.14 h; under setting [10], 5.33 ± 0.18 h; under setting [11], 4.5 ± 0.17 h; under setting [2], 3.16 ± 0.085 h. The “total protein half-life in vivo” value runs as follows: under setting [3], 5.45 ± 0.32 h; under setting [4], 10.3 ± 1.7 h; under setting [5], 4.6 ± 0.073 h; under setting [6], 7.33 ± 0.076 h; under setting [12], 6.31 ± 0.59 h; under setting [7], 12.1 ± 0.98 h.

In the case of “MRLTAKQVTWLKVCLHLAGLLPFLWLVWAINHGGLGADPVKDIQHFTGRTALKFLLATLLITPLARYAKQPLLIRTRRLLGLWCFAWATLHLTSYALLELGVNNLALLGKELITRPYLTLGIISWVILLALAFTSTQAMQRKLGKHWQQLHNFVYLVAILAPIHYLWSVKIISPQPLIYAGLAVLLLALRYKKLRSLFNRLRKQVHNKLSV”, the “total protein half-life in vivo” value under setting [6] amounted to 8.91 h.

In the case of “MKKLRIGVVGLGGIAQKAWLPVLAAASDWTLQGAWSPTRAKALPICESWRIPYADSLSSLAASCDAVFVHSSTASHFDVVSTLLNAGVHVCVDKPLAENLRDAERLVELAARKKLTLMVGFNRRFAPLYGELKTQLATAASLRMDKHRSNSVGPHDLYFTLLDDYLHVVDTALWLSGGKASLDGGTLLTNDAGEMLFAEHHFSAGPLQITTCMHRRAGSQRETVQAVTDGALIDITDMREWREERGQGVVHKPIPGWQSTLEQRGFVGCARHFIECVQNQTVPQTAGEQAVLAQRIVDKIWRDAMSE”, the “total protein half-life in vivo” value by setting is: under setting [1], 5.47 ± 0.24 h; under setting [8], 5.38 ± 1.1 h; under setting [9], 5.7 ± 0.25 h; under setting [10], 6.04 ± 0.96 h; under setting [11], 4.86 ± 0.11 h; under setting [2], 3.12 ± 0.51 h. Also, the “total protein half-life in vivo” value runs as follows: under setting [3], 5.88 ± 0.12 h; under setting [4], 11 ± 0.34 h; under setting [5], 4.96 ± 0.26 h; under setting [6], 9.402 ± 0.04 h; under setting [12], 6.2 ± 0.17 h; under setting [7], 12 ± 0.19 h.

Take “MMSGEHTLKAVRGSFIDVTRTIDNPEEIASALRFIEDGLLLIKQGKVEWFGEWENGKHQIPDTIRVRDYRGKLIVPGFVDTHIHYPQSEMVGAYGEQLLEWLNKHTFPTERRYEDLEYAREMSAFFIKQLLRNGTTTALVFGTVHPQSVDALFEAASHINMRMIAGKVMMDRNAPDYLLDTAESSYHQSKELIERWHKNGRLLYAITPRFAPTSSPEQMAMAQRLKEEYPDTWVHTHLCENKDEIAWVKSLYPDHDGYLDVYHQYGLTGKNCVFAHCVHLEEKEWDRLSETKSSIAFCPTSNLYLGSGLFNLKKAWQKKVKVGMGTDIGAGTTFNMLQTLNEAYKVLQLQGYRLSAYEAFYLATLGGAKSLGLDDLIGNFLPGKEADFVVMEPTATPLQQLRYDNSVSLVDKLFVMMTLGDDRSIYRTYVDGRLVYERN”: the “total protein half-life in vivo” value under setting [1] came to 5.05 ± 0.34 h; the “total protein half-life in vivo” value under setting [8] was found to be 3.95 ± 0.22 h; the “total protein half-life in vivo” value under setting [9] was found to be 4.26 ± 0.28 h; the “total protein half-life in vivo” value under setting [10] was determined as 4.12 ± 0.085 h; the “total protein half-life in vivo” value under setting [11] is 3.79 ± 0.042 h; the “total protein half-life in vivo” value under setting [2] stood at 3.26 ± 0.59 h. For the same sequence, the “total protein half-life in vivo” value by setting is: under setting [3], 6.35 ± 1.1 h; under setting [4], 10.2 ± 0.27 h; under setting [5], 3.78 ± 0.16 h; under setting [6], 7.14 ± 1.4 h; under setting [12], 5.87 h.

The values above are taken from the supplement of paper PMC11246515.
